Assay results reported in US11919930B2, “Odorant receptor co-receptor” (Sumitomo Chemical Company, Limited, priority 2016, dated 2024).

How the values were obtained:
[1] = system: odorant receptor AaOR8; assay: Aequorin luminescence measurement in HEK293FT cells co-expressing AaOR8 and a co-receptor, 1-octen-3-ol added; format: cell-based; conditions: 1-octen-3-ol 10^-4 to 10^-10 M; for intensity of response (relative amount of luminescence) to 1-octen-3-ol: compared to cells that expressed original AaORCO or DmORCO
Protocol: HEK293FT cells (purchased from invitrogen, Inc.) were inoculated into 10-cm Petri dishes at a concentration of 3×10^6 cells/Petri dish, and the cells were cultured in DMEM medium containing 10% FBS (manufactured by Nacalai Tesque, Inc.) for about 24 hours under the conditions of 37° C. and 5% CO2. 3 μg of any one of the co-receptor expression plasmids produced, 1.5 μg of any one of the odorant receptor expression plasmids produced, and 8 μg of Aequorin expression plasmid were mixed with 12.5 μL of Plus reagent and 31.25 μL of LIPOFECTAMINE LTX (manufactured by Invitrogen, Inc.), and the mixture was maintained for 30 minutes. Subsequently this liquid mixture was transfected into the above-mentioned cells. After 4 hours from the initiation of transfection, the cells were inoculated onto a 96-well plate at a concentration of 9×10^4 cells/well, and the cells were cultured in DMEM medium containing 10% FBS (manufactured by Nacalai Tesque, Inc.) for about 24 hours under the conditions of 37° C. and 5% CO2. Thereby, transformed cells having a co-receptor expression plasmid, an odorant receptor expression plasmid, and an aequorin expression plasmid transiently incorporated therein were obtained.
(§1) Aequorin is activated when hound to a calcium ion, and oxidizes a substrate such as coelenterazine, thus emitting light. […] Therefore, whether an odorant receptor complex functions an ion channel as a result of addition of a substance to be detected, can be measured from the change in the amount of luminescence.
A culture fluid of the transformed cells was removed, and the medium was exchanged with Hanks-HEPES (20 mM, pH 7.4) including Assay buffer (0.5 μM coelenterazine h (manufactured by Promega Corporation) and 0.3% BSA. culture system was left to stand for another 4 hours at room temperature. Subsequently, a substance to be detected, which corresponded to an odorant receptor, was added to the cell culture using FLEXSTATION 3 (manufactured by Molecular Devices, LLC), and at the same time, the amount of luminescence of the cells was measured. As a control substance, the amount of luminescence in the cells to which dimethyl sulfoxide had been added was designated as 1, and the amount or luminescence of cells to which the substance to be detected was added was calculated as a relative value.
(§2) Cells into which: • an expression plasmid of odorant receptor AaOR8; • an expression plasmid of any one of co-receptor AaORCO or DmORCO, or various chimeric co-receptors Dm-AaORCO having different positions of recombination [Dm(NT-EC1)AaORCO, Dm(NT-TM3)AaOROC, Dm(NT-TM4)AaORCO, Dm(NT-TM5)AaORCO, or Dm(NT-TM6)AaORCO]; and • an aequorin expression plasmid had been incorporated were used, and the amount of luminescence was measured as explained above. 1-Octen-3-ol was used as a substance to be detected, and 1-octen-3-ol was added to the culture fluid at a concentration of 10^−4 M, 10^−5 M, 10^−6 M, 10^−7 M, 10^−8 M, 10^−9 M, or 10^−10 M. The results are presented in FIG. 1.
as §2, with “AmORCO” for “AaORCO”, “Dm-AmORCO” for “Dm-AaORCO”, “[Dm(NT-TM3)AmOROC, Dm(NT-TM4)AmORCO, Dm(NT-TM5)AmORCO,” for “[Dm(NT-EC1)AaORCO, Dm(NT-TM3)AaOROC, Dm(NT-TM4)AaORCO, Dm(NT-TM5)AaORCO,”, “Dm(NT-TM6)AmORCO];” for “Dm(NT-TM6)AaORCO];”, “2. […]” for “1.”

[2] = system: odorant receptor DmOR47a; assay: Aequorin luminescence measurement in HEK293FT cells co-expressing DmOR47a and a co-receptor, pentyl acetate added; format: cell-based, Drosophila melanogaster; conditions: pentyl acetate 10^-4 to 10^-7 M, compared to cells that expressed original DmORCO or AmORCO
Chain of odorant receptor DmOR47a (as listed by the source, one chain of several): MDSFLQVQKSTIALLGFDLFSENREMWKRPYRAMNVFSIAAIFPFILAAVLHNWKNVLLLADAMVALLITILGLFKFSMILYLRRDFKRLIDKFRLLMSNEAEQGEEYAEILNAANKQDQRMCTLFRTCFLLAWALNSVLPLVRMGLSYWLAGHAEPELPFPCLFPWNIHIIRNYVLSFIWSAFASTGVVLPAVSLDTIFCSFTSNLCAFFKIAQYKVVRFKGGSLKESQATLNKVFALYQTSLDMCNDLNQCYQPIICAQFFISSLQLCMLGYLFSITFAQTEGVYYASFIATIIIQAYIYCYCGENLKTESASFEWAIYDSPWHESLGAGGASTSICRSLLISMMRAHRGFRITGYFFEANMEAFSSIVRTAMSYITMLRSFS
Protocol: (§3) HEK293FT cells (purchased from invitrogen, Inc.) were inoculated into 10-cm Petri dishes at a concentration of 3×10^6 cells/Petri dish, and the cells were cultured in DMEM medium containing 10% FBS (manufactured by Nacalai Tesque, Inc.) for about 24 hours under the conditions of 37° C. and 5% CO2. 3 μg of any one of the co-receptor expression plasmids produced, 1.5 μg of any one of the odorant receptor expression plasmids produced, and 8 μg of Aequorin expression plasmid were mixed with 12.5 μL of Plus reagent and 31.25 μL of LIPOFECTAMINE LTX (manufactured by Invitrogen, Inc.), and the mixture was maintained for 30 minutes. Subsequently this liquid mixture was transfected into the above-mentioned cells. […]
as §1, with “luminescence. […]” for “luminescence.”
(§4) Cells into which: • an expression plasmid of odorant receptor DmOR47a; • an expression plasmid of any one of co-receptor DmORCO or AmORCO, or chimeric co-receptor Dm(NT-TM4)AmORCO; and • an aequorin expression plasmid had been incorporated were used, and the amount of luminescence was measured as explained above. […]

[3] = system: odorant receptor BmOR56; assay: Aequorin luminescence measurement in HEK293FT cells co-expressing BmOR56 and a co-receptor, cis-jasmone added; format: cell-based, Bombyx mori; conditions: cis-jasmone 10^-5 to 10^-11 M, compared to cells that expressed BmORCO and BmOR56
Chain of odorant receptor BmOR56 (as listed by the source, one chain of several): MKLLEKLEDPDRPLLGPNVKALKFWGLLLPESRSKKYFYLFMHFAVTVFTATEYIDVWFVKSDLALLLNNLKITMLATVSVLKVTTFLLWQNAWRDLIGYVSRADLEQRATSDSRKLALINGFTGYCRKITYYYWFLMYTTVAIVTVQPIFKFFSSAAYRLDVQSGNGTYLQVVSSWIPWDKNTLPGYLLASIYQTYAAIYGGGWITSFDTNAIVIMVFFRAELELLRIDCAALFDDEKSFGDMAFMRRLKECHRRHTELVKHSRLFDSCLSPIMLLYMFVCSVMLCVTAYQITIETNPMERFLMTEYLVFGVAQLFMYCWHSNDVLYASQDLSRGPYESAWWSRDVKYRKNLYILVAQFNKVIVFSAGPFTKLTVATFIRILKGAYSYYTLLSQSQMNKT
Protocol: as §3
as §1, with “luminescence. […]” for “luminescence.”
as §4, with “BmOR56;” for “DmOR47a;”, “BmORCO” for “DmORCO or AmORCO,”

[4] = compared to cells that expressed original AaORCO or AmORCO

B1: Ag(NT-TM4)AmORCO: chimeric co-receptor: NT to TM4 from Anopheles co-receptor, IC2 to C-terminal domain from Apis co-receptor; SEQ ID NO:114 (protein)
chain: MQVQPTKYVGLVADLMPNIRLMQASGHFLFRYVTGPILIRKVYSWWTLAMVLIQFFAILGNLATNADDVNELTANTITTLFFTHSVTKFIYFAVNSENFYRTLAIWNQTNTHPLFAESDARYHSIALAKMRKLLVLVMATTVLSVVAWVTITFFGESVKTVLDKATNETYTVDIPRLPIKSWYPWNAMSGPAYIFSFIYQIYFLLFSMVQSNLADVMFCSWLLLACEQLQHLKNIMKPLMEFSATLDTVVPNSGELFKAGSAEQPKEQEPLPPVTPPQGENMLDMDLRGIYSNRTDFTTTFRPTAGMTFNGGVGPNGLTKKQEMLVRSAIKYWVERHKHIVRLVTAIGDAYGVALLLHMLTTTITLTLLAYQATKIHAVDTYAASVVGYLLYSLGQVFMLCIFGNRLIEESSSVMEAAYSCHWYDGSEEAKTFVQIVCQQCQKAMSISGAKFFTVSLDLFASVLGAMVTYFMVLVQLK
concentration of 1-octan-3-ol at which cells responded [1, 4]: responded to 1-octan-3-ol at a lower concentration

B2: Aa(NT-TM4)AmORCO: chimeric co-receptor: NT to TM4 from Aedes co-receptor, IC2 to C-terminal domain from Apis co-receptor; SEQ ID NO:108 (protein)
chain: MNVQPTKYHGLVLDLMPNIRLMQGFGHFLFRYVNGPVLIRKLYSWWNLIMILLQYFAIMGNLVMNTGDVNELTANTITTLFFTHSVTKFIYVAVNSEHFYRTLGIWNQPNSHSLFAESDARYHSIALAKMRKLLVMVMVTTVLSVVAWITITFFGDSVKNVFDKETNETYTVEIPRLPIKAWYPWDAMSGVPYFFSFIYQAYFLLFSMCQANLADVMFCSWLLFTCEQLQHLKNIMKPLMEFSATLDTVVPNSGELFKAGSAEQPKEQEPLPPVTPPQGENMLDMDLRGIYSNRTDFTTTFRPTAGMTFNGGVGPNGLTKKQEMLVRSAIKYWVERHKHIVRLVTAIGDAYGVALLLHMLTTTITLTLLAYQATKIHAVDTYAASVVGYLLYSLGQVFMLCIFGNRLIEESSSVMEAAYSCHWYDGSEEAKTFVQIVCQQCQKAMSISGAKFFTVSLDLFASVLGAMVTYFMVLVQLK
response (relative amount of luminescence) to 1-octan-3-ol [1, 4]: responded more strongly to 1-octan-3-ol

B3: Dm(TM1-4Aa)AaORCO: chimeric co-receptor: amino-terminal domain, EC1, IC1, EC2 from Drosophila co-receptor, other domains from Aedes co-receptor; SEQ ID NO:86 (protein)
chain: MTTSMQPSKYTGLVADLMPNIRAMKYSGLFMHNFTGGSAFMRKLYSWWNLIMILLQYFAIMGNLVLNAEEVNELSGNTITTLFFTHSVTKFIYVAVNQKNFYRTLNIWNQVNTHPLFAESDARYHSIALAKMRKLLVMVMVTTVLSVVAWITITFFGDSVKMVVDHETNSSIPVEIPRLPIKSFYPWNASSGVPYFFSFIYQAYFLLFSMCQANLADVMFCSWLLFTCEQLQHLKGIMRPLMELSATLDTYRPNSAALFRVASAGSKSELILNEEKDPDTKDFDLNGIYNSKADWGAQFRAPSTLQTFGDNGINGNPNGLTKKQELMVRSAIKYWVERHKHVVRLVSAIGETYGAALLLHMLTSTIKLTLLAYQATKIDALNVYGLTVIGYLVYALAQVFLFCIFGNRLIEESSSVMEAAYSCHWYDGSEEAKTFVQIVCQQCQKAMTISGAKFFTVSLDLFASVLGAVVTYFMVLVQLK
intensity of response (relative amount of luminescence) to 1-octen-3-ol [1]: the intensity of response to 1-octen-3-ol was decreased

B4: Dm(NT-TM4)AmORCO: chimeric co-receptor: NT to TM4 from Drosophila co-receptor, IC2 to C-terminal domain from Apis co-receptor; SEQ ID NO:100 (protein)
chain: MTTSMQPSKYTGLVADLMPNIRAMKYSGLFMHNFTGGSAFMKKVYSSVHLVFLLMQFTFILVNMALNAEEVNELSGNTITTLFFTHCITKFIYLAVNQKNFYRTLNIWNQVNTHPLFAESDARYHSIALAKMRKLFFLVMLTTVASATAWTTITFFGDSVKMVVDHETNSSIPVEIPRLPIKSFYPWNASHGMFYMISFAFQIYYVLFSMIHSNLCDVMFCSWLIFACEQLQHLKNIMKPLMEFSATLDTVVPNSGELFKAGSAEQPKEQEPLPPVTPPQGENMLDMDLRGIYSNRTDFTTTFRPTAGMTFNGGVGPNGLTKKQEMLVRSAIKYWVERHKHIVRLVTAIGDAYGVALLLHMLTTTITLTLLAYQATKIHAVDTYAASVVGYLLYSLGQVFMLCIFGNRLIEESSSVMEAAYSCHWYDGSEEAKTFVQIVCQQCQKAMSISGAKFFTVSLDLFASVLGAMVTYFMVLVQLK
increase in the amount of luminescence caused by addition of 1-octen-3-ol ([1]; compared to cells that expressed original AmORCO or DmORCO): the increase in the amount of luminescence caused by addition of 1-octen-3-ol was larger
response (relative amount of luminescence) to pentyl acetate [2]: responded more strongly to pentyl acetate
response (relative amount of luminescence) to cis-jasmone [3]: responded more strongly to cis-jasmone

B5: Aa(TM1-4Dm)AaORCO: chimeric co-receptor: first to fourth transmembrane domains from Drosophila co-receptor, other domains from Aedes co-receptor; SEQ ID NO:82 (protein)
chain: MNVQPTKYHGLVLDLMPNIRLMQGFGHFLFRYVNGPVLIKKVYSSVHLVFLLMQFTFILVNMAMNTGDVNELTANTITTLFFTHCITKFIYLAVNSEHFYRTLGIWNQPNSHSLFAESDARYHSIALAKMRKLFFLVMLTTVASATAWTTITFFGDSVKNVFDKETNETYTVEIPRLPIKAWYPWDAMHGMFYMISFAFQIYYVLFSMIHSNLCDVMFCSWLIFACEQLQHLKGIMRPLMELSATLDTYRPNSAALFRVASAGSKSELILNEEKDPDTKDFDLNGIYNSKADWGAQFRAPSTLQTFGDNGINGNPNGLTKKQELMVRSAIKYWVERHKHVVRLVSAIGETYGAALLLHMLTSTIKLTLLAYQATKIDALNVYGLTVIGYLVYALAQVFLFCIFGNRLIEESSSVMEAAYSCHWYDGSEEAKTFVQIVCQQCQKAMTISGAKFFTVSLDLFASVLGAVVTYFMVLVQLK
intensity of response (relative amount of luminescence) to 1-octen-3-ol [1]: the intensity of response to 1-octen-3-ol was decreased
